According to patent publication US20190040115A1 (IMMATICS BIOTECHNOLOGIES, published 2019):

Target: T1, HLA-A*02:01 (human)
T1 construct: captured on streptavidin plates; also called peptide-receptive MHC molecules
Experiment: UV peptide exchange ELISA (anti-b2m); yield grade: + >10%, ++ >20%, +++ >50, ++++ >75%
From the text: Candidate peptides for T cell based therapies according to the present invention were further tested for their MHC binding capacity (affinity). The individual peptide-MHC complexes were produced by UV-ligand exchange, where a UV-sensitive peptide is cleaved upon UV-irradiation, and exchanged with the peptide of interest as analyzed. Only peptide candidates that can effectively bind and stabilize the peptide-receptive MHC molecules prevent dissociation of the MHC complexes. To determine the yield of the exchange reaction, an ELISA was performed based on the detection of the light chain (β2m) of stabilized MHC complexes. The assay was performed as generally described in Rodenko et al. (Rodenko et al., 2006).
96 well MAXISorp plates (NUNC) were coated over night with 2 ug/ml streptavidin in PBS at room temperature, washed 4× and blocked for 1 h at 37° C. in 2% BSA containing blocking buffer. Refolded HLA-A*02:01/MLA-001 monomers served as standards, covering the range of 15-500 ng/ml. Peptide-MHC monomers of the UV-exchange reaction were diluted 100 fold in blocking buffer. Samples were incubated for 1 h at 37° C., washed four times, incubated with 2 ug/ml HRP conjugated anti-β2m for 1 h at 37° C., washed again and detected with TMB solution that is stopped with […]. Absorption was measured at 450 nm. Candidate peptides that show a high exchange yield (preferably higher than 50%, most preferred higher than 75%) are generally preferred for a generation and production of antibodies or fragments thereof, and/or T cell receptors or fragments thereof, as they show sufficient avidity to the MHC molecules and prevent dissociation of the MHC complexes.

Binder | peptide exchange yield [%]
LLGEGIPSA | > 75
SLDQIIQHL | 50 to 75
SLKQTVVTL | 50 to 75
TLIELLLPKL | > 75
RLDDKTTNV | 50 to 75
FLEDLVPYL | > 75
FLPQKIIYL | > 75
LMDETMKEL | > 75
NLREILQNV | 50 to 75
SLDAVMPHL | 50 to 75
QLMEGKVVL | > 75
RLPDQFSKL | 50 to 75
KMTQYITEL | > 75
SLGLGFISRV | 50 to 75
NVDENVAEL | 20 to 50
KQQASQVLV | 50 to 75
FLDVKELML | > 75

Second part, the binder after the results:

peptide exchange yield [%] | Binder
> 75 | TLSEICEFI
50 to 75 | VLDVSFNRL
> 75 | TLVAFLQQV
20 to 50 | TVIRPLPGL
50 to 75 | YVDDFGVSV
20 to 50 | VVDDIVSKL
50 to 75 | VLPAVLTRL
> 75 | TMIEICEKL
20 to 50 | VIDDLIQKL
50 to 75 | VLDTLTKVL
50 to 75 | YIDDVFMGL
> 75 | YLFAFLNHL
50 to 75 | VLYSLVSKI
